Reference: patent US20150218230

Columns and labels:
Experiment in all cases: cell_activity
[1] = tested on: TALE-nuclease collection F NI-NN-NG (synthetic)
[2] = tested on: TALE-nuclease collection F NG-NN-HD (synthetic); conditions: GFP disruption, mammalian cells, rank 1
[3] = tested on: TALE-nuclease collection F HD-NN-NN (synthetic)
[4] = tested on: TALE-nuclease collection F HD-NG-HD (synthetic)
[5] = tested on: TALE-nuclease collection F NG-NI-NN (synthetic)
[6] = tested on: TALE-nuclease collection F NG-NI-NI (synthetic)
[7] = tested on: TALE-nuclease collection F NI-NG-HD (synthetic)
[8] = tested on: TALE-nuclease collection F NG-NG-HD (synthetic)
[9] = tested on: TALE-nuclease collection F NG-NN-NN (synthetic)
[10] = tested on: TALE-nuclease collection F NG-NI-HD (synthetic)
[11] = tested on: TALE-nuclease collection F NG-NG-NN (synthetic)
[12] = tested on: TALE-nuclease collection F NN-NG-NI (synthetic)
[13] = tested on: TALE-nuclease collection F NN-NI-NN (synthetic)
[14] = tested on: TALE-nuclease collection F NN-NI-HD (synthetic)
[15] = tested on: TALE-nuclease collection F NG-HD-NI (synthetic)
[16] = tested on: TALE-nuclease collection F NG-HD-HD (synthetic)
[17] = tested on: TALE-nuclease collection F NG-NI-NG (synthetic)
[18] = tested on: TALE-nuclease collection F NG-HD-NN (synthetic)
[19] = tested on: TALE-nuclease collection F NI-NN-NN (synthetic)
[20] = tested on: TALE-nuclease collection F NG-NG-NG (synthetic)
[21] = tested on: TALE-nuclease collection F NN-NI-NG (synthetic)
[22] = tested on: TALE-nuclease collection F NG-NN-NG (synthetic)
[23] = tested on: TALE-nuclease collection F NG-NG-NI (synthetic)
[24] = tested on: TALE-nuclease collection F NG-HD-NG (synthetic)

Substance “integrated GFP locus TALE-nuclease target” has an activity (% GFP negative cells) [1] of 5.9, an activity (% GFP negative cells) [2] of 28.8 and an activity (% GFP negative cells) [3] of 4.4. For the same substance, the activity (% GFP negative cells) [4] was 3.9, the activity (% GFP negative cells) [5] was 17.7 and the activity (% GFP negative cells) [6] was 12.6. It also gave an activity (% GFP negative cells) [7] of 3.6, an activity (% GFP negative cells) [8] of 21 and an activity (% GFP negative cells) [9] of 19.8. The activity (% GFP negative cells) [10] was 22.8, the activity (% GFP negative cells) [11] was 18.6 and the activity (% GFP negative cells) [12] was 7.6. For the same substance, the activity (% GFP negative cells) [13] was 3.2, the activity (% GFP negative cells) [14] was 5.3 and the activity (% GFP negative cells) [15] was 4.5. It also gave an activity (% GFP negative cells) [16] of 18.9, an activity (% GFP negative cells) [17] of 18.3 and an activity (% GFP negative cells) [18] of 6.5. It also gave an activity (% GFP negative cells) [19] of 6.2, an activity (% GFP negative cells) [20] of 19.5 and an activity (% GFP negative cells) [21] of 5.1. It also gave an activity (% GFP negative cells) [22] of 22.2, an activity (% GFP negative cells) [23] of 9.4 and an activity (% GFP negative cells) [24] of 14.7.
